Target: Influenza H1 (A/Brisbane/59/2007) HA Clamp (Influenza A virus …, UniProt D5F1Q8, stabilised)
Assay: ELISA
Conditions: both partners purified

B1: recombinant bat antibody C05 with human signal peptide (bat C05Hsp) (antibody, V domains shown)
VH: QVQLQESGGGLVQPGESLRLSCVGSGSSFGESTLSYYAVSWVRQAPGKGLEWLSIINAGGGDIDYADSVEGRFTISRDNSKETLYLQMTNLRVEDTGVYYCAKHMSMQQVVSAGWERADLVGDAFDVWGQGTMVTVSS
VL: DIQLTQSPSSLSASVGDRVTLTCQASQDIRKFLNWYQQKPGKGPKLLIYDASNLQRGVPSRFSGGGSGTDFTLIISSLQPEDVGTYYCQQYDGLPFTFGGGTKVVIK
notes: also called bC05Hsp; ReBA
With B1 the Kd was 0.25 nM.

B2: recombinant bat antibody C05 with bat signal peptide (bC05Bsp) (antibody, V domains shown)
VH: B1 VH
VL: B1 VL
notes: also called ReBA
In the case of B2, the Kd is reported as 0.39 nM.

Reference: PMC12995615 (Frontiers in Immunology, 2026)
